Laboratory results reported in patent US20240360248A1 (NANOMAB TECHNOLOGY, published 2024).
Positions count from the first letter of the chain named.

T1: human PTK7-Fc protein antigen (human, UniProt Q13308 31-704)
T1 construct: extracellular domain; also called human PTK7 extracellular segment protein; not shown: Fc from the pFUSE-IgG recombinant plasmid
T1 sequence (looked up): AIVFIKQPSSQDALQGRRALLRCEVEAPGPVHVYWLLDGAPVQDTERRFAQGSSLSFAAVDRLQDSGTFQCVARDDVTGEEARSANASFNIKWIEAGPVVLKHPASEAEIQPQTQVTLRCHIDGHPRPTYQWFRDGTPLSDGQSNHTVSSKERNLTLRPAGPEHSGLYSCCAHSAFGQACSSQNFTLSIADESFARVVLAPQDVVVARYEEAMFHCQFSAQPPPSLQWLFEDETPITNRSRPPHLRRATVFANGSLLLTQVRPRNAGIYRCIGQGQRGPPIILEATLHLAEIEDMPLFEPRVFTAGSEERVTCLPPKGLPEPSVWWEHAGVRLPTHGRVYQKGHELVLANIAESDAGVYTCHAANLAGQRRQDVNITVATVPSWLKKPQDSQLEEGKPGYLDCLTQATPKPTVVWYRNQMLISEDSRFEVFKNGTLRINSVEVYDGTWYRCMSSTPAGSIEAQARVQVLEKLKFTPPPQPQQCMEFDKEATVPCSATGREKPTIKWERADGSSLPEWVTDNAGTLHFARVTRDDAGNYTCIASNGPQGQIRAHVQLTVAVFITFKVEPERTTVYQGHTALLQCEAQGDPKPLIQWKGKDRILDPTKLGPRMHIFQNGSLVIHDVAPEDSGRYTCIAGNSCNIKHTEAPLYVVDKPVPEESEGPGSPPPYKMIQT

T2: PTK7-Fc antigen protein from mouse species (mouse, UniProt Q8BKG3 23-696, limits assumed)
T2 construct: also called Mouse PTK7; not shown: Fc
T2 sequence (looked up): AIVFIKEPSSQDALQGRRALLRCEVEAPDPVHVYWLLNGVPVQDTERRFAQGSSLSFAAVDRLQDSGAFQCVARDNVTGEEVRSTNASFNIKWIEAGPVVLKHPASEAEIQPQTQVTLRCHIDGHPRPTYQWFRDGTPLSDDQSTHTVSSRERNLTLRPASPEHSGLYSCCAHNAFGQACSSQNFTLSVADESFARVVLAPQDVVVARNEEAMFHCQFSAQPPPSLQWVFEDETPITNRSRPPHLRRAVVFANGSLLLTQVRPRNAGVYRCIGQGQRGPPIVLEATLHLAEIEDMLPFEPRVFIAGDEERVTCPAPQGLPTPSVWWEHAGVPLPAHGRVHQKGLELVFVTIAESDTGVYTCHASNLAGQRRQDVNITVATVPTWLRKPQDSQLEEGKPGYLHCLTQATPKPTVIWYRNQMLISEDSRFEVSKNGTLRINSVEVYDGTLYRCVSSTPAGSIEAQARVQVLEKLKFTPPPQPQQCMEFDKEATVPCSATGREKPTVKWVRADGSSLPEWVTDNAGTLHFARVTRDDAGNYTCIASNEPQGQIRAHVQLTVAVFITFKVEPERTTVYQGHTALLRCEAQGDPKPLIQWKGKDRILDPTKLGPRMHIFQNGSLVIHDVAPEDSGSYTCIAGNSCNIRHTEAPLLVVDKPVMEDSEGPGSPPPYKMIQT

T3: PTK7-His antigen protein from rhesus monkey species (rhesus monkey, UniProt F7G3Z5 39-712)
T3 construct: also called Rhesus monkey PTK7; not shown: His tag
T3 sequence: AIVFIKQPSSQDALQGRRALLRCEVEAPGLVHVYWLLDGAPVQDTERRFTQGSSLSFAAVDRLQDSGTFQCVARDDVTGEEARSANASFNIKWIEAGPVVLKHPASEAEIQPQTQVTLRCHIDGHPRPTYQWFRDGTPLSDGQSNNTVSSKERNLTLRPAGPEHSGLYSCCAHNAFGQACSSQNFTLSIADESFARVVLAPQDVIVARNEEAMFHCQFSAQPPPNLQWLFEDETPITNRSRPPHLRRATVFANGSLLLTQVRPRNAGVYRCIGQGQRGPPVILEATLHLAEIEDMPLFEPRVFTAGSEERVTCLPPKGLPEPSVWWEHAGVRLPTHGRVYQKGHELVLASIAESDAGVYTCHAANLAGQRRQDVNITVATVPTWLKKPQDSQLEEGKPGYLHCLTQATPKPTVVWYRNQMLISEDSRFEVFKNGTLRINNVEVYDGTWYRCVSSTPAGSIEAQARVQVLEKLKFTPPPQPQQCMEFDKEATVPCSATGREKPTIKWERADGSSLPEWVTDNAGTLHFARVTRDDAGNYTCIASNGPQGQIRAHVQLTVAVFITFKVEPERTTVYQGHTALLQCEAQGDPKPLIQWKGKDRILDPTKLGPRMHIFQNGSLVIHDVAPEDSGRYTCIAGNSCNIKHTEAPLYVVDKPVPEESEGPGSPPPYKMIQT

B1: MY2132-4-22 (VHH)
VHH: QVQLQESGGGSVQAGGSLRLSCTASGFTFDDYDMVWYRQAPGNEYEWLSTVSRGGNLYYADSVKGRFTISRDNAKNTVYLNMSRVKPEDTAVYYCAADLRSVPSTYRARTCRGRYCRDYWGQGTQVTVSS
notes: Camel VHH expressed in E. coli WK6 and purified on a nickel column; also called MY2132-4-22 VHH; anti-PTK7 single domain antibody
B2: MY2132-4-55 (VHH)
VHH: QVQLQESGGGSVQAGGSLRLSCAASGYIWSRYCMGWFRQAPGKAREGVARFNSDGNTRYVDSVKGRFTISRDNAKNTLYLQMNNLQPEDTARYYCAADPRFDCGYDAVFNPTHFPYWGRGTQVTVSS
notes: Camel VHH expressed in E. coli WK6 and purified on a nickel column; also called MY2132-4-55 VHH; anti-PTK7 single domain antibody
B3: MY2132-4-79 (VHH)
VHH: B2 VHH with R119Q
notes: Camel VHH expressed in E. coli WK6 and purified on a nickel column; also called MY2132-4-79 VHH; anti-PTK7 single domain antibody
B4: MY2132-5-51 (VHH)
VHH: QVQLQESGGGLVQPGGSLTLACAASGFAFSSYAMRWVRQAPGKGLEGVSSISAGGDETYYADFAKGRFTISRDNAKNTLYLQLNSLKTEDTAMYYCAKGDRNSPRYSSWPITPVGQGTQVTVSS
notes: Camel VHH expressed in E. coli WK6 and purified on a nickel column; also called MY2132-5-51 VHH; anti-PTK7 single domain antibody

The binders below were run against T1, human PTK7-Fc protein antigen (assay: SPR (Biacore 8K), human PTK7-Fc amine-coupled on CM-5 chip, VHH as analyte).
Protocol: The fixed phase human PTK7-Fc antigen proteins were fixed on the surface of CM-5 sensing chip using carboxyl amino reaction. The anti-PTK7 single domain antibodies were diluted with HBS buffer to different concentrations, and the anti-PTK7 single domain antibodies were added at a flow rate of 30 μl/min, binding for 90 seconds, dissociating for 600 seconds, and the binding process between the anti-PTK7 single domain antibody and the antigen was observed. After rinsing with 10 mM glycine solution for chip regeneration, the next anti-PTK7 single domain antibody assay was proceeded.

Kd | koff | kon | Binder
2.13 nM | 0.0322 s⁻¹ | 1.51e+07 M⁻¹ s⁻¹ | B1
0.18 nM | 0.000314 s⁻¹ | 1.76e+06 M⁻¹ s⁻¹ | B2
0.22 nM | 0.000358 s⁻¹ | 1.64e+06 M⁻¹ s⁻¹ | B3
3.45 nM | 0.00166 s⁻¹ | 482000 M⁻¹ s⁻¹ | B4

Each binder was assayed against T1, human PTK7-Fc protein antigen (assay: ELISA, antigen coated on plate, VHH in gradient dilution, anti-His/anti-HA-HRP; Kd calculated from absorbance at 450 nm).
Protocol: (§1) The ELISA plates were coated with PTK7-Fc antigen proteins from human, or mouse species, or PTK7-His antigen protein from rhesus monkey species, overnight at 4° C. The plates were washed for 4 times with PBS-T the next day, added with 1% BSA, and blocked at room temperature for 2 hours. The plates were washed for 4 times with PBS-T, added with the anti-PTK7 single domain antibodies diluted in gradient, and kept at 37° C. for 1 hour. The plates were washed for 4 times with PBS-T, added with mouse anti-His-HRP antibody or mouse anti-HA-HRP antibody, and kept at 37° C. for 1 hour. The plates were washed for 4 times with PBS-T, added with TMB soluble substrate, and kept at room temperature for 10 minutes. The absorption value was read at a wavelength of 450 nm and the Kd value of each single domain antibody was calculated based on the absorption value.
(§2) The anti-PTK7 single domain antibodies of the present invention can bind to human, mouse or rhesus monkey PTK7.

EC50 | Binder
0.33 nM | B1
0.49 nM | B2
0.59 nM | B3
0.61 nM | B4

What follows are binders tested against T2, PTK7-Fc antigen protein from mouse … in the same assay as above.
Protocol: as §1, §2

EC50 | Binder
12.7 nM | B1

What follows are binders tested against T3, PTK7-His antigen protein from rhesus … in the same assay as above.
Protocol: as §1, §2

EC50 | Binder
0.3 nM | B1
1.03 nM | B4
